± gives the standard deviation of the averaged measurements.
System: ATP
Assay: switch fluorescence ratio, 500 uM ATP over buffer (Cy3 cluster intensity, sum of 5 cycles each) (fold (ratio)); higher = stronger signal-on switching upon ATP binding; sequences stand for … in TCGTCGGCAGCGTCAGATGTGTATAAGAGACAGTTTTTTTTTTTTTTTTTTTTTTTTT…TC
Details: aptamer strand: ATP DNA aptamer (quencher-CACCTGGGGGAGTATTGCGGAGGAAGG + anchor), 100 nM annealed; ATP concentration: 500 uM
Summary of the method: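 After annealing to 100 nM quencher-labelled ATP aptamer, Cy3-labelled switching-strand clusters on a modified Illumina MiSeq flow-cell were imaged in selection buffer. A second image followed after 15 min with 500 uM ATP at 22 °C, and five such buffer/ATP cycles were done, each separated by NaOH stripping and re-annealing. The fluorescence ratio, averaged per switch-domain sequence, is summed target-cycle over summed buffer-cycle Cy3 intensity per cluster, with clusters outside 100-1000 RFU excluded.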
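Further: ATP exposure 15 min at 22 °C before imaging.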

Sequence	switch fluorescence ratio
CACTCTGCTG	1.19 ± 0.012
CACTGCGTCT	1.07 ± 0.11
CACTGGAAAA	1.04 ± 0.036
CACTGGAGGG	0.9937 ± 0.0042
CACTTAAGGC	1.05 ± 0.072
CACTTATTCT	0.973 ± 0.017
CACTTGGGTG	1.064 ± 0.0066
CACTTGGTTG	0.997 ± 0.051
CACTTGTTTT	1.01 ± 0.011
CAGAAAGGAC	1.02 ± 0.031
CAGAAGGGCC	0.997 ± 0.089
CAGAAGGTTT	1 ± 0.022
CAGACCGTTT	1.01 ± 0.018
CAGACGAGGC	1.044 ± 0.0037
CAGACGGATT	0.996 ± 0.0085
CAGACGGTAC	3.08 ± 0.089
CAGAGAATTT	1.004 ± 0.0046
CAGAGATCAT	0.993 ± 0.019
CAGAGGAGGG	0.9747 ± 0.008
CAGAGGATCA	0.996 ± 0.015
CAGAGGCCCG	1.02 ± 0.032
CAGAGGGGTA	1.01 ± 0.03

Sequence	switch fluorescence ratio
CAGAGGTATG	1.01 ± 0.028
CAGAGTCGGG	0.9963 ± 0.009
CAGAGTTTCT	1.02 ± 0.021
CAGAGTTTTA	1.02 ± 0.015
CAGATAAGGA	1.01 ± 0.026
CAGATGCAGA	1.065 ± 0.0071
CAGATGGGGA	1.012 ± 0.0036
CAGATGTCAA	0.993 ± 0.013
CAGATTTGGG	1.01 ± 0.035
CAGCAACGTA	1.05 ± 0.025
CAGCAATTAT	2.95 ± 0.28
CAGCAGGGGG	1.07 ± 0.068
CAGCATATAT	2.32 ± 0.053
CAGCCCGGTC	1.06 ± 0.048
CAGCGAACGG	1.02 ± 0.026
CAGCGAAGAG	1.01 ± 0.0025
CAGCGGCTTT	0.977 ± 0.032
CAGCGGGATT	0.995 ± 0.036
CAGCGGGGCC	0.994 ± 0.011
CAGCTAAATT	1.02 ± 0.047
CAGCTCAGCC	1 ± 0.042
CAGCTGCATT	1.305 ± 0.013

Sequence	switch fluorescence ratio
CAGCTGGATG	0.993 ± 0.029
CAGCTGGTAT	0.9992 ± 0.0011
CAGCTGGTTT	1.004 ± 0.0077
CAGCTGTGGT	0.985 ± 0.036
CAGCTTATCG	0.995 ± 0.014
CAGCTTGGGT	0.999 ± 0.04
CAGCTTTGAG	1.01 ± 0.037
CAGGAAAATG	0.994 ± 0.041
CAGGAATAGC	1.25 ± 0.044
CAGGAATAGG	1.03 ± 0.012
CAGGACAGCT	1.02 ± 0.02
CAGGACCCGA	0.99 ± 0.025
CAGGACCCGT	0.9965 ± 0.0019
CAGGACTCCG	0.98 ± 0.046
CAGGAGGCGG	1.02 ± 0.037
CAGGAGGGCT	0.993 ± 0.031
CAGGAGTCGG	1.01 ± 0.014
CAGGATCATC	0.9884 ± 0.0035
CAGGATGCAT	1.01 ± 0.02
CAGGATGCCC	0.9871 ± 0.0066
CAGGATGTAC	1.05 ± 0.063
CAGGATTCTG	1.03 ± 0.059

Sequence	switch fluorescence ratio
CAGGCAAGCT	1.061 ± 0.0071
CAGGCAGGAC	2.24 ± 0.17
CAGGCATGGT	0.9891 ± 0.002
CAGGCCATGG	1.03 ± 0.094
CAGGGAAGGT	1.01 ± 0.033
CAGGGAATAA	0.997 ± 0.011
CAGGGAATGT	0.9984 ± 0.0077
CAGGGAATTG	0.989 ± 0.075
CAGGGACGGT	0.975 ± 0.058
CAGGGATTTG	0.9599 ± 0.0044
CAGGGCGACA	0.9924 ± 0.0012
CAGGGCGCCT	1.012 ± 0.002
CAGGGCGTAT	1 ± 0.026
CAGGGCTTGA	1.03 ± 0.093
CAGGGGCTGT	0.997 ± 0.038
CAGGGGGAAC	1.04 ± 0.061
CAGGGGGGAT	1.04 ± 0.067
CAGGGGGGTC	1.022 ± 0.0065
CAGGGGGTAG	1.01 ± 0.027

Source: the supplement of paper PMC10126150
